The values that follow come from US20180339041A1 (Kyowa Kirin, published 2018).

One may read the Kd as the free concentration of one partner at which half of the binding sites on the other are occupied at equilibrium, for simple one-to-one binding. Usually koff stands for the rate constant with which the complex falls apart. As usually defined, the kon is a measure of how fast the partners come together. The term EC50 denotes the concentration needed to bring the measured effect to its halfway point. For orientation: IC50 means the midpoint of a concentration-inhibition curve.

In assay [1] the target is T1, C-terminally FLAG-tagged human Gas6 recombinant protein (hGas6-F) (human, UniProt Q14393 31-678, gamma-carboxylated glutamic acid residues in the Gla domain (producer cells co-express rat VKOR and human GGCX); positions not given).
T1 construct: also called human Gas6-F; human Gas6 protein
T1 sequence: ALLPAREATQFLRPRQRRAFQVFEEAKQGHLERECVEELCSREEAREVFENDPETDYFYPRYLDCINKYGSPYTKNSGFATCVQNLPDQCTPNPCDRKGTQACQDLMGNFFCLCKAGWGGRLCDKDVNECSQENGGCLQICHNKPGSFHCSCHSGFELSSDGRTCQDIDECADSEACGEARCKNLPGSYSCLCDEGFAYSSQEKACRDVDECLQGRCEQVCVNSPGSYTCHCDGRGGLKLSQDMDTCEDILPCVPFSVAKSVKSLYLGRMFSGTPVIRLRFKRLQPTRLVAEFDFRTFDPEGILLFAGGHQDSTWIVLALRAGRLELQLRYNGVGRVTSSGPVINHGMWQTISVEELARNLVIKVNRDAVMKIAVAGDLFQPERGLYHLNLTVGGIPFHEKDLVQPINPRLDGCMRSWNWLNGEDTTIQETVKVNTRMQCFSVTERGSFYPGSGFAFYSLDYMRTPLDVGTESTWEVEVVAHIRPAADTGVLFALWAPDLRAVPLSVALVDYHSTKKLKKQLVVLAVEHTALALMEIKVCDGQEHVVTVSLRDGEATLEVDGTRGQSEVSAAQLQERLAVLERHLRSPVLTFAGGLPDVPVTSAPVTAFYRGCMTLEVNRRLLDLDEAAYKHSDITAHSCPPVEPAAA
As to the kind of experiment: SPR Biacore T100, captured antibody, Gas6 analyte, first test. (Surface plasmon resonance follows binding to a sensor surface in real time, without labels.)

Assay [2] has as its target T1, C-terminally FLAG-tagged human Gas6 …. The assay is described as above. How it is done:
The measurement instrument used was Biacore® T100 (manufactured by GE Healthcare Japan Corp.).
(§1) An anti-human IgG antibody was immobilized on a CM5 sensor chip (manufactured by GE Healthcare Japan Corp.) using Human Antibody Capture Kit (manufactured by GE Healthcare Japan Corp.) according to the attached manual. Each test antibody adjusted to 1 μg/mL was added for 10 seconds at a flow rate of 10 μL/min to flow cells. […] The measurement was performed by the […] method. The obtained sensorgram was analyzed using Bia Evaluation Software (manufactured by GE Healthcare Japan Corp.), and the kinetic constant of each antibody was calculated.
The source holds these as a separate data set.

The target of assay [3] is T2, human protein S (derived from human serum; Enzyme Research Laboratories) (human, UniProt P07225 42-676).
T2 construct: Homologue of Gas6 used as specificity control
T2 sequence (looked up): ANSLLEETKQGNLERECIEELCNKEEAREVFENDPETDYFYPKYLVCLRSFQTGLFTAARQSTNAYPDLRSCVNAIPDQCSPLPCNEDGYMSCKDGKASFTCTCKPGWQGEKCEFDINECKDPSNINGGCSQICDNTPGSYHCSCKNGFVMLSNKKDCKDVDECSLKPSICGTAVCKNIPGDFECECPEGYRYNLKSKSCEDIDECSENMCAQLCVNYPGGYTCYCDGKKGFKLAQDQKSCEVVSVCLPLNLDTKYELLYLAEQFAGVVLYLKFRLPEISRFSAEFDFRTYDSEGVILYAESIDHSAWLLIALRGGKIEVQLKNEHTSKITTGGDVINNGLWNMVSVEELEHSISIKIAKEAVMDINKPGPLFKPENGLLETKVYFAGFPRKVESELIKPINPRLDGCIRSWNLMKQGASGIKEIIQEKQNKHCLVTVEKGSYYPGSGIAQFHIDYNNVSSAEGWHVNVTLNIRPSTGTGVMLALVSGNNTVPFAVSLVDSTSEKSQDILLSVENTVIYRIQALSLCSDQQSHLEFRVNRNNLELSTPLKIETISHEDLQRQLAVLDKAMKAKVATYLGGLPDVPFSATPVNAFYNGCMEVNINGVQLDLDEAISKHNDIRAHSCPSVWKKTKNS
As to the kind of experiment: ELISA: human protein S coated directly on the plate (2 µg/mL); biotinylated test antibody; streptavidin-HRP/TMB (Example 6, method of Example 5(5)) [F]. How it is done: First, a 2 μg/mL solution of the antigen (prepared from each antigen with PBS (manufactured by Nacalai Tesque, Inc.)) was dispensed at 50 μL/well to a 96-well plate for ELISA (manufactured by Nalge Nunc International), and the plate was left standing overnight at 4° C. for adsorption. The plate was washed five times with Tween 20-PBS. Then, 1% BSA-PBS (manufactured by Nacalai Tesque, Inc.) was added thereto at 300 μL/well, and the plate was left standing at room temperature for 1 hour for blocking and washed five times with Tween 20-PBS (manufactured by Wako Pure Chemical Industries Ltd.). Next, the hybridoma culture supernatant was dispensed thereto as a test substance at 50 μL/well, and the plate was left standing at room temperature for 1 hour and then washed five times with Tween 20-PBS. Next, polyclonal goat anti-mouse immunoglobulins/HRP (Dako Denmark A/S, P0447) diluted 2000-fold with 1% BSA-PBS was dispensed thereto at 50 μL/well, and the plate was left standing at room temperature for 1 hour. The plate was washed five times with Tween 20-PBS, and TMB (manufactured by Sigma-Aldrich Co. LLC) was added thereto at 50 μL/well and reacted. At an appropriate point in time, the reaction was terminated by the addition of 1 N hydrochloric acid (manufactured by Wako Pure Chemical Industries Ltd.) at 50 μL/well. The absorbance at a sample wavelength of 450 nm and a reference wavelength of 570 nm (450 nm-570 nm) was measured using a plate reader (Spectra Max, manufactured by Molecular Devices, LLC).
The binding activity of the obtained antibodies against human protein S was measured in the same way as in Example 5(5). […] The secondary detection reagent used was Streptavidin HRP Conjugate (manufactured by R&D Systems, Inc.) diluted 200-fold with 1% BSA-PBS.
In general terms: An ELISA detects its analyte on a solid surface through an enzyme-linked reagent.

The target in assay [4] is T1, C-terminally FLAG-tagged human Gas6 …. As to the kind of experiment: ELISA, Gas6-F captured by anti-FLAG, biotinylated antibody. How it is done:
After removal of the immobilization solution, 1% BSA-PBS (manufactured by Nacalai Tesque, Inc.) was added thereto at 300 μL/well, and the plate was left standing at room temperature for 1 hour for blocking and washed five times with Tween 20-PBS (manufactured by Wako Pure Chemical Industries Ltd.).
Each antibody solution was dispensed thereto at 50 μL/well, and the plate was left standing at room temperature for 1 hour. This plate was washed five times with Tween 20-PBS. Then, Streptavidin HRP Conjugate (manufactured by R&D Systems, Inc.) diluted 200-fold with 1% BSA-PBS was dispensed thereto at 50 μL/well, and the plate was left standing at room temperature for 1 hour. This plate was washed five times with Tween 20-PBS, and TMB (manufactured by Sigma-Aldrich Co. LLC) was added thereto at 50 μL/well and reacted. At an appropriate point in time, the reaction was terminated by the addition of 1 N hydrochloric acid (manufactured by Wako Pure Chemical Industries Ltd.) at 50 μL/well. The absorbance at a sample wavelength of 450 nm and a reference wavelength of 570 nm (450 nm-570 nm) was measured using a plate reader.

The target is the same in assay [5]. As to the kind of experiment: ELISA, hGas6-F captured by anti-FLAG, anti-human IgG-HRP. How it is done: First, 2 μg/mL anti-FLAG antibody [Monoclonal ANTI-FLAG M2 antibody produced in mouse (manufactured by Sigma-Aldrich Co. LLC) diluted with PBS (manufactured by Nacalai Tesque, Inc.)] was dispensed at 50 μL/well to a 96-well plate for ELISA (manufactured by Nalge Nunc International), and the plate was left standing overnight at 4° C. for adsorption. After removal of the immobilization solution, 1% BSA-PBS (manufactured by Nacalai Tesque, Inc.) was added thereto at 300 μL/well, and the plate was left standing at room temperature for 1 hour for blocking and washed five times with Tween 20-PBS (manufactured by Wako Pure Chemical Industries Ltd.).
In order to reduce the backgrounds of measurement values, the diluted secondary antibody solution was mixed with 50 μg/mL of an anti-DNP mouse IgG1 antibody and incubated at room temperature for 1 hour for use.

For assay [6] the target is unchanged. As to the kind of experiment: SPR Biacore T100, captured antibody, Gas6 analyte, retest. How it is done: as §1
In this retest, unlike the test mentioned above, the number of antibodies to be measured and variations in the concentration of the analyte were decreased, and the assay was conducted for a short time (within several hours), instead of sufficiently leaving standing the analyte added to the vial. […] This minimizes the adsorption of the analyte to the vial and permits more accurate calculation of ka and KD values than that in the test mentioned above.

Assay [7] has the same target. As to the kind of experiment: competitive ELISA, inhibition of hGas6-F binding to immobilised hAxl-hFc.

B1: hzKM5320 LV0HV0 antibody (antibody, V domains shown)
VH: QVQLVQSGSELKKPGASVKVSCKASGYTFTNYGMNWVRQAPGQGLEWMGWINTETGEPTYSDDFKGRFVFSLDTSVSTAYLQISSLKAEDTAVYYCAREDGYYGTLDYWGQGTTVTVSS
VL: DVVMTQSPDSLAVSLGERVTINCKASQSVSNDVAWYQQKPGQSPKLLIYYASNRYTGVPDRFSGSGSGTDFTLTISSLQAEDVAVYYCQQDYSSPWTFGQGTKLEIK
notes: Humanized; variant human IgG4 constant region (EU S228P, L235E, R409K), human kappa; also called A-02
Take B1: in assay [1], the Kd was below 13.8 nM, the koff stood at 0.000924 s⁻¹ and the kon is above 66800 M⁻¹ s⁻¹. Moreover, in assay [2], the “fold increase of KD against the KM5320 chimeric antibody” value is at least 10 fold and the “fold increase of kd against the KM5320 chimeric antibody” value was around 6 fold.

B2: CNTO antibody (anti-Gas6 monoclonal antibody WG1 of U.S. Pat. No. 7,547,767, remade) (antibody, V domains shown)
VH: QVQLVESGGGVVQPGRSLRLSCAASGFTFSSYGMHWVRQAPGKGLEWVAVIWYDGSNKYYADSVKGRFTISRDNSKNTLYLQMNSLRAEDTAMYFCAREGFYYDILTAYSLEYFQHWGQGTLVTVSS
VL: EIVLTQSPDFQSVTPKEKVTITCRASQSIGSSLHWYQQKPDQSPKLLIKYASQSFSGVPSRFSGSGSGTDFTLTINSLEAEDAAAYYCHQSSSLPYTFGQGTKLEIK
notes: Expressed from vector pKANTEX93 in CHO; also called CNT0300
Take B2: the binding result in assay [3] is “no binding (tested: 5 µg/mL)”. In addition, in assay [4], the “antibody concentration at which binding activity was detected” value came out at 0.04 µg/mL; the “binding activity at 5 µg/mL against the largest activity of KM5320-mKG1 and KM5321-mKG1” value was below 0.5 fold.

B3: hzKM5321 LV0HV0 antibody (antibody, V domains shown)
VH: QVHLVQSGSELKKPGASVKISCKASGYTFTNYGMNWVRQAPGQGLEWMGWINTNTGEPTYTEEFKGRFVFSLDTSVTTSYLQISTLKAEDTAVYFCARDEGWFVYWGQGTLVTVSS
VL: ETTLTQSPSSLSASVGDRVTITCITSTDIDDDMNWYQQKPGKAPKLLISEGNTLRPGVPSRFSGSGSGTDFTLTISSLQPEDFATYYCLQTDSVPLTFGQGTKVEIK
notes: Humanized; variant human IgG4 constant region (EU S228P, L235E, R409K), human kappa; also called B-02; LV0HV0
B3: in assay [1], the Kd is below 3.57 nM, the koff was 0.000468 s⁻¹ and the kon was above 131000 M⁻¹ s⁻¹. Further, in assay [2], the “fold increase of KD against the KM5321 chimeric antibody” value was around 3 fold and the “fold increase of kd against the KM5321 chimeric antibody” value is around 3 fold.

B4: hzKM5321 LV6HV2b antibody (antibody, V domains shown)
VH: QVHLVQSGPELKKPGASVKISCKASGYTFTNYGMNWVRQAPGQGLEWMGWINTNTGEPTYTEEFKGRFVFSLDTSVTTSYLQISTLKAEDTATYFCARDEGWFVYWGQGTLVTVSS
VL: ETTLTQSPSSLSVSTGDRVTITCITSTDIDDDMNWYQQKPGKPPKLLISEGNTLRPGVPSRFSSSGSGTDFTLTISSTQPEDFADYYCLQTDSVPLTFGQGTKVEIK
notes: Humanized; variant human IgG4 constant region (EU S228P, L235E, R409K), human kappa; also called B-24; LV6HV2b
Consider B4, for which, in assay [5], the EC50 amounted to 5.95 ng/mL. Also, in assay [1], the Kd is below 2.33 nM, the koff stood at 0.000239 s⁻¹ and the kon is above 103000 M⁻¹ s⁻¹. Further, in assay [6], the Kd was 0.484 nM, the koff is 0.000154 s⁻¹ and the kon came to 319000 M⁻¹ s⁻¹. The IC50 in assay [7] amounted to 12.7 ng/mL.

B5: hzKM5321 LV7bHV0 antibody (antibody, V domains shown)
VH: QVHLVQSGSELKKPGASVKISCKASGYTFTNYGMNWVRQAPGQGLEWMGWINTNTGEPTYTEEFKGRFVFSLDTSVTTSYLQISTLKAEDTAVYFCARDEGWFVYWGQGTLVTVSS
VL: ETTVTQSPSSLSVSVGDRVTITCITSTDIDDDMNWYQQKPGKAPKLLISEGNTLRPGVPSRFSSSGSGTDFTFTISSTQPEDFADYYCLQTDSVPLTFGQGTKLEIK
notes: Humanized; variant human IgG4 constant region (EU S228P, L235E, R409K), human kappa; also called B-10; LV7bHV0
As to B5, in assay [5], the EC50 worked out at 6.69 ng/mL. Further, in assay [1], the Kd was below 1.88 nM, the koff was 0.000242 s⁻¹ and the kon was above 129000 M⁻¹ s⁻¹. Also, in assay [6], the Kd amounted to 0.403 nM, the koff is 0.000142 s⁻¹ and the kon worked out at 353000 M⁻¹ s⁻¹. In assay [7], the IC50 amounted to 11.8 ng/mL.
